Measured values: publication PMC11734626

Target: T7-tagged TanGIBLE (Tandem BAG6 domain I BUILD linked entity) (human) (UniProt P46379)
Assay: co-IP

**Q.** Which fold co-precipitated against BAG6 N200, with MG-132 does the source give for “Flag-tagged IL-2 receptor α subunit without its signal sequence (Flag-IL-2Rα ΔSS) (domain or fragment)” here?
**A.** Its fold co-precipitated against BAG6 N200, with MG-132 is 2.4 fold.

**Q.** What about the fold co-precipitated against BAG6 N200, without MG-132 of the same substance?
**A.** The fold co-precipitated against BAG6 N200, without MG-132 was 5.6 fold.
